{"source": "ChEMBL document CHEMBL1221251", "about": "“Factorizing the role of a critical leucine residue in the binding of substrate to human 20alpha-hydroxysteroid dehydrogenase (AKR1C1): molecular modeling and kinetic studies of the Leu308Val mutant enzyme” (Bioorg Med Chem Lett, 2010)", "molecules": {"B1": {"name": "Aldo-keto reductase family 1 member C1 (Homo sapiens), Q04828 (protein)", "chain": "MDSKYQCVKLNDGHFMPVLGFGTYAPAEVPKSKALEATKLAIEAGFRHIDSAHLYNNEEQVGLAIRSKIADGSVKREDIFYTSKLWCNSHRPELVRPALERSLKNLQLDYVDLYLIHFPVSVKPGEEVIPKDENGKILFDTVDLCATWEAVEKCKDAGLAKSIGVSNFNRRQLEMILNKPGLKYKPVCNQVECHPYFNQRKLLDFCKSKDIVLVAYSALGSHREEPWVDPNSPVLLEDPVLCALAKKHKRTPALIALRYQLQRGVVVLAKSYNEQRIRQNVQVFEFQLTSEEMKAIDGLNRNVRYLTLDIFAGPPNYPFSDEY"}, "B2": {"name": "Aldo-keto reductase family 1 member C1 (Homo sapiens), Q04828 L308V (protein)", "chain": "B1 chain with L308V"}}, "key": {"[1]": {"test_system": "Aldo-keto reductase family 1 member C1 (Homo sapiens), Q04828 [UNDEFINED MUTATION]", "assay": "Ratio of Km for human recombinant AKR1C1 Leu308Val mutant to Km for human recombinant wild type AKR1C1"}, "[2]": {"test_system": "Aldo-keto reductase family 1 member C1 (Homo sapiens), Q04828 [UNDEFINED MUTATION]", "assay": "Ratio of Kcat/Km for human recombinant AKR1C1 Leu308Val mutant to Kcat/Km for human recombinant wild type AKR1C1"}, "[3]": {"test_system": "Aldo-keto reductase family 1 member C1 (Homo sapiens), Q04828 [UNDEFINED MUTATION]", "assay": "Ratio of Km for human recombinant AKR1C1 Leu308Ala mutant to Km for human recombinant wild type AKR1C1"}, "[4]": {"test_system": "Aldo-keto reductase family 1 member C1 (Homo sapiens), Q04828 [UNDEFINED MUTATION]", "assay": "Ratio of Kcat/Km for human recombinant AKR1C1 Leu308Ala mutant to Kcat/Km for human recombinant wild type AKR1C1"}, "[5]": {"substrate": "CC(=O)[C@H]1CC[C@H]2[C@@H]3CC[C@@H]4C[C@H](O)CC[C@]4(C)[C@H]3CC[C@]12C", "assay": "(§1) Activity at human recombinant wild type AKR1C1 expressed in Escherichia coli JM109 after 15 mins"}, "[6]": {"substrate": "C[C@@H](O)[C@H]1CC[C@H]2[C@@H]3CC[C@H]4C[C@H](O)CC[C@]4(C)[C@H]3CC[C@]12C", "assay": "as §1"}, "[7]": {"substrate": "CC(=O)[C@H]1CC[C@H]2[C@@H]3CC[C@@H]4C[C@H](O)CC[C@]4(C)[C@H]3CC[C@]12C", "assay": "(§2) Ratio of kcat/km for human recombinant wild type AKR1C1 expressed in Escherichia coli JM109 after 15 mins"}, "[8]": {"substrate": "C[C@@H](O)[C@H]1CC[C@H]2[C@@H]3CC[C@H]4C[C@H](O)CC[C@]4(C)[C@H]3CC[C@]12C", "assay": "as §2"}, "[9]": {"target": "T1, Aldo-keto reductase family 1 member C1 (Homo sapiens) (UniProt Q04828)", "assay": "Activity at human recombinant wild type AKR1C1 expressed in Escherichia coli JM109 after 15 mins"}, "[10]": {"target": "T1, Aldo-keto reductase family 1 member C1 …", "assay": "Ratio of kcat/km for human recombinant wild type AKR1C1 expressed in Escherichia coli JM109 after 15 mins"}, "[11]": {"substrate": "CC(=O)[C@H]1CC[C@H]2[C@@H]3CC[C@@H]4C[C@H](O)CC[C@]4(C)[C@H]3CC[C@]12C", "assay": "(§3) Activity at human recombinant AKR1C1 Leu308Val mutant expressed in Escherichia coli JM109 after 15 mins"}, "[12]": {"substrate": "C[C@@H](O)[C@H]1CC[C@H]2[C@@H]3CC[C@H]4C[C@H](O)CC[C@]4(C)[C@H]3CC[C@]12C", "assay": "as §3"}, "[13]": {"substrate": "CC(=O)[C@H]1CC[C@H]2[C@@H]3CC[C@@H]4C[C@H](O)CC[C@]4(C)[C@H]3CC[C@]12C", "assay": "(§4) Ratio of kcat/km for human recombinant AKR1C1 Leu308Val mutant expressed in Escherichia coli JM109 after 15 mins"}, "[14]": {"substrate": "C[C@@H](O)[C@H]1CC[C@H]2[C@@H]3CC[C@H]4C[C@H](O)CC[C@]4(C)[C@H]3CC[C@]12C", "assay": "as §4"}}, "note": "Residue numbers refer to the chain shown, from its start. Names may count otherwise."}
{"molecule": "C[C@@H](O)[C@H]1CC[C@H]2[C@@H]3CC[C@H]4C[C@H](O)CC[C@]4(C)[C@H]3CC[C@]12C", "values": [{"measurement": "Ratio", "setting": "[1]", "value": 0.4}, {"measurement": "Ratio", "setting": "[2]", "value": 7}]}
{"molecule": "CC(=O)[C@H]1CC[C@H]2[C@@H]3CC[C@@H]4C[C@H](O)CC[C@]4(C)[C@H]3CC[C@]12C", "values": [{"measurement": "Ratio", "setting": "[1]", "value": 2}, {"measurement": "Ratio", "setting": "[2]", "value": 0.2}]}
{"molecule": "O[C@H]1CCCc2ccccc21", "values": [{"measurement": "Ratio", "setting": "[1]", "value": 2}, {"measurement": "Ratio", "setting": "[3]", "value": 67}, {"measurement": "Ratio", "setting": "[2]", "value": 0.2}, {"measurement": "Ratio", "setting": "[4]", "value": 0.01}]}
{"molecule": "B1", "values": [{"measurement": "Km", "setting": "[5]", "value": 7, "unit": "µM⁻¹"}, {"measurement": "Km", "setting": "[6]", "value": 0.9, "unit": "µM⁻¹"}, {"measurement": "kcat/Km", "setting": "[7]", "value": 61700, "unit": "M⁻¹ s⁻¹"}, {"measurement": "kcat/Km", "setting": "[8]", "value": 40000, "unit": "M⁻¹ s⁻¹"}, {"measurement": "Km", "setting": "[9]", "value": 7, "unit": "µM⁻¹"}, {"measurement": "kcat/Km", "setting": "[10]", "value": 61700, "unit": "M⁻¹ s⁻¹"}]}
{"molecule": "B2", "values": [{"measurement": "Km", "setting": "[11]", "value": 16, "unit": "µM⁻¹"}, {"measurement": "Km", "setting": "[12]", "value": 0.4, "unit": "µM⁻¹"}, {"measurement": "kcat/Km", "setting": "[13]", "value": 13300, "unit": "M⁻¹ s⁻¹"}, {"measurement": "kcat/Km", "setting": "[14]", "value": 267000, "unit": "M⁻¹ s⁻¹"}]}
